According to US7534862:

Key:
[1] = target: hyper-IL-6 (H-IL-6), a fusion protein comprising IL-6+sIL-6R (UniProt P08887); test: cell-based or functional assay
[2] = target: IL-6/sIL-6R complex (100 ng/ml IL-6 + 50 ng/ml sIL-6R) (UniProt P05231); test: cell-based or functional assay
IL-6/sIL-6R complex (100 ng/ml IL-6 + 50 ng/ml sIL-6R), sequence (P05231 30-212 limits assumed, chain 1 of 2): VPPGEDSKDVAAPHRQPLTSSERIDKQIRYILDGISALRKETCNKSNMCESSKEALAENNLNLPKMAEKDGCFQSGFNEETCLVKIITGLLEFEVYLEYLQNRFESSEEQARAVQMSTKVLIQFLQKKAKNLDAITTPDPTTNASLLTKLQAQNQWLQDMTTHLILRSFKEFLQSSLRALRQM
IL-6/sIL-6R complex (100 ng/ml IL-6 + 50 ng/ml sIL-6R), sequence (P08887 20-358 limits assumed, chain 2 of 2, further chain): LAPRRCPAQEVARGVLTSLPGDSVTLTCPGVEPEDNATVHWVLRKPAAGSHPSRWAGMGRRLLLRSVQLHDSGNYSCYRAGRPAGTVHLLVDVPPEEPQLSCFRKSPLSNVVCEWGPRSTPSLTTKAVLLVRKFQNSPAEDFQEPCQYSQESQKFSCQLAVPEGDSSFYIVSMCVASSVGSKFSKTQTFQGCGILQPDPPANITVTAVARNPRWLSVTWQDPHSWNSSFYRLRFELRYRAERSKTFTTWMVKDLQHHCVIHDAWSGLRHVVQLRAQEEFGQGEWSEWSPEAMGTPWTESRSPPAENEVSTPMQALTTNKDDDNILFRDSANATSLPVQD

sgp130TagPEG (PEGylated sgp130Tag / sgp130(D1-D3)-His, forked PEG), sequence (P40189 other isoform, or with tags, fused parts or gaps): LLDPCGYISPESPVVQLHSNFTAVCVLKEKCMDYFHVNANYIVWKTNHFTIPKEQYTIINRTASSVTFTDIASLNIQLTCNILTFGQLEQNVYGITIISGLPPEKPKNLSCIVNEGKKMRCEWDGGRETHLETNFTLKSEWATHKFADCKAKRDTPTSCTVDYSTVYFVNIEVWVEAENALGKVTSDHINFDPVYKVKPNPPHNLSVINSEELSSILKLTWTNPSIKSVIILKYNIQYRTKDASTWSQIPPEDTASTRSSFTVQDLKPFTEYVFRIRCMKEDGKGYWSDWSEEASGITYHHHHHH
hyper-IL-6 (H-IL-6), a fusion protein comprising IL-6+sIL-6R, sequence (P08887 20-323 limits assumed, chain 1 of 2): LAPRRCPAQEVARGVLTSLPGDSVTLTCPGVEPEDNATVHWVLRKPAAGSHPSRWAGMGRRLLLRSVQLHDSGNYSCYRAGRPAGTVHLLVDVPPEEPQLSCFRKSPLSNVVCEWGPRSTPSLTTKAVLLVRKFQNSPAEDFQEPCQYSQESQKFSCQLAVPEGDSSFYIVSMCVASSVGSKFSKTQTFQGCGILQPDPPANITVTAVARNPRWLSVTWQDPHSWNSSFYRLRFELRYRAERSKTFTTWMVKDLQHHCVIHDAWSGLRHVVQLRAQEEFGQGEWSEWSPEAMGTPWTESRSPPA
hyper-IL-6 (H-IL-6), a fusion protein comprising IL-6+sIL-6R, sequence (P05231 30-212 limits assumed, chain 2 of 2, further chain): as the sequence (P05231 30-212 limits assumed, chain 1 of 2) above
Human sgp130Fc, sequence (P40189 23-619 limits assumed): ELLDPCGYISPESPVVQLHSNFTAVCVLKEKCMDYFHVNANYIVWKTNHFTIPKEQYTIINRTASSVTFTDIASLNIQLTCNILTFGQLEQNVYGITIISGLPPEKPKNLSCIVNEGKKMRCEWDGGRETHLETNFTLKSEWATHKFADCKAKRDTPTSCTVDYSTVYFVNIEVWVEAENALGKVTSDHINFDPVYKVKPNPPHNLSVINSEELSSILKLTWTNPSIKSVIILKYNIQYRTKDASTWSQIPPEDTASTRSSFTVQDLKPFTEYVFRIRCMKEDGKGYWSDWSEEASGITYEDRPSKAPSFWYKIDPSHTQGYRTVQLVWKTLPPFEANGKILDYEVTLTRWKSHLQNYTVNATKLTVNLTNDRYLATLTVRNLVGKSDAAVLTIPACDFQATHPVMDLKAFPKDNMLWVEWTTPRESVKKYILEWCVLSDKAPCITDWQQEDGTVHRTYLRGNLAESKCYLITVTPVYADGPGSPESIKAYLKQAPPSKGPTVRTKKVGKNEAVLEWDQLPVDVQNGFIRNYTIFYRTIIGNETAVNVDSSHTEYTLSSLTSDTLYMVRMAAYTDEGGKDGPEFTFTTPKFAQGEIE

STAT3 activity (relative luciferase activity, pSTAT3-TA-Luc reporter in BAF/gp130 cells) at 10 ug/ml inhibitor, 5 ng/ml H-IL-6 (% of activity with H-IL-6 alone) [1]	concentration giving half-maximal activation of STAT3 (H-IL-6-induced, luciferase reporter in BAF/gp130 cells) [1] [µg/mL]	efficiency relative to sgp130Fc in inhibition of H-IL-6-induced STAT3 activation (fold vs sgp130Fc) [1]	factor of improvement over sgp130Fc in inhibition of BAF/gp130 proliferation (fold vs sgp130Fc) [1]	half-maximal [3H]-thymidine incorporation of BAF/gp130 cells (proliferation) [1] [ng/mL]	factor of improvement over sgp130Fc in inhibition of BAF/gp130 proliferation (fold vs sgp130Fc) [2]	half-maximal [3H]-thymidine incorporation of BAF/gp130 cells (proliferation) [2] [ng/mL]	Substance
26							Human sgp130Fc (from UniProt P40189 23-619) (Fc fusion)
19	2.5	2 to 3	1.5 to 3	1 to 5	1.5 to 3	1 to 5	sgp130TagPEG (PEGylated sgp130Tag / sgp130(D1-D3)-His, forked PEG) (from UniProt P40189 24-322) (receptor)
